Experiment [1] deals with TrkA of NGF-responsive neurons from embryonic chick sympathetic ganglia (chick).
Experiment [2] addresses TrkB of BDNF-responsive neurons from embryonic chick nodose ganglia (chick).
The target of experiment [3] is T1, TrkA (Rattus norvegicus (Rat), UniProt P35739). Nature of the experiment: competition with 125I-NGF on rtrkA-3T3 cells, COS conditioned medium, relative binding from IC50. As to the method:
(§1) FIG. 2A–D. TrkA receptor binding, receptor phosphorylation and biological activity of wild-type (wt) and chimeric molecules (see SEQ. ID. NOS. 1 and 2 for all chimeric constructions). […] Each point represents the mean of triplicate determinations. Standard deviation was at or generally below ±10%. (B) and (C) Tyrosine phosphorylation of TrkA receptors stimulated by wt NGF, wt BDNF and chimeric molecules. rtrkA-3T3 cells were treated with 100 ng/ml of the indicated recombinant proteins and assayed for tyrosine phosphorylation. Media from mock-transfected COS cells was used as negative control (CONTROL). Arrowhead indicates the migration of phosphorylated TrkA (p140^trk). The faster migrating band correspond to constituitively phosphorylated p140^trk precursors ([Kaplan, 1991]). (D) Serial dilutions of transfected COS cell conditioned medium containing equal amounts of wt and chimeric factors were assayed for their ability to stimulate neurite outgrowth from E8 chick sympathetic ganglia. Data from three determinations varied by ±20% of the average values reported here. Key symbols as in (A).
Purified mouse NGF and BDNF were labeled with ^125I by the lactoperoxidase method to an average specific activity of 1×10^8 cpm/μg. For the labeling of BDNF, the modifications described by Rodriguez-Tebar et al. ([Rodriguez-Tebar, 1992]) were used. NIH3T3 fibroblasts expressing TrkA, TrkB or TrkC were used at 2 to 1–×10^6 cells/ml. […] All components were added at the same time and the cells were collected by centrifugation after equilibrium was reached (90–120 minutes incubation). Cell pellets were then counted in a gamma counter.

Experiment [4] deals with T2, TrkB (Rattus norvegicus (Rat), UniProt Q63604). Nature of the experiment: competition with 125I-BDNF on rtrkB-3T3 cells. As to the method:
(§2) Purified mouse NGF and BDNF were labeled with ^125I by the lactoperoxidase method to an average specific activity of 1×10^8 cpm/μg. For the labeling of BDNF, the modifications described by Rodriguez-Tebar et al. ([Rodriguez-Tebar, 1992]) were used. NIH3T3 fibroblasts expressing TrkA, TrkB or TrkC were used at 2 to 1–×10^6 cells/ml. Steady state binding was measured in competition assays performed at 4° C. using 1.5×10^-9M ^125I-BDNF and serial dilutions of conditioned media containing equivalent amounts of wt or mutated NGF protein. All components were added at the same time and the cells were collected by centrifugation after equilibrium was reached (90–120 minutes incubation). Cell pellets were then counted in a gamma counter. […] Nonspecific binding was measured in a parallel incubation to which 300 to 1000-fold molar excess of unlabelled purified factor was added. All results were corrected for this nonspecific binding, which was less than 10% (for NGF) or 30% (for BDNF) of total binding. The concentration of each chimeric, mutant and wild type molecule that gave 50% binding (IC$50$) was determined, and relative binding was calculated using the relationship:(mutant IC$50$/wild type IC$50$)X 100.

Experiment [5] addresses T2, TrkB. Nature of the experiment: competition with 125I-BDNF on rtrkB-3T3 cells, COS conditioned medium, relative binding from IC50. The protocol: as §2
Experiment [6] has as its target T1, TrkA. In words: competition with 125I-NGF on rtrkA-3T3 cells. The protocol: as §2, with “Steady state binding was measured in competition assays performed at 4° C. using 1.5×10^-9M ^125I-BDNF and serial dilutions of conditioned media containing equivalent amounts of wt or mutated NGF protein.” left out
Figure 3A: FIG. 3A&B. NGF variable regions I, IV and V partially restore TrkA binding and biological activity of the NH_2+I+III+IV+V chimeric molecule (see SEQ. ID. NOS. 1 and 2 for all chimera construction). […] Each point represents the mean of triplicate determinations.

Experiment [7] addresses T1, TrkA. In words: competition with 125I-NGF on rtrkA-3T3 cells. The protocol: as §1
Purified mouse NGF and BDNF were labeled with ^125I by the lactoperoxidase method to an average specific activity of 1×10^8 cpm/μg. For the labeling of BDNF, the modifications described by Rodriguez-Tebar et al. ([Rodriguez-Tebar, 1992]) were used. […] Cell pellets were then counted in a gamma counter.
The source holds these as a separate data set.

The target of experiment [8] is TrkB (Rattus norvegicus (Rat)) (UniProt Q63604).

A value given as a limit tells only on which side of the number the result lay.

Chain of TrkB of BDNF-responsive neurons from embryonic chick nodose ganglia (chick) (Q91987 whole entry): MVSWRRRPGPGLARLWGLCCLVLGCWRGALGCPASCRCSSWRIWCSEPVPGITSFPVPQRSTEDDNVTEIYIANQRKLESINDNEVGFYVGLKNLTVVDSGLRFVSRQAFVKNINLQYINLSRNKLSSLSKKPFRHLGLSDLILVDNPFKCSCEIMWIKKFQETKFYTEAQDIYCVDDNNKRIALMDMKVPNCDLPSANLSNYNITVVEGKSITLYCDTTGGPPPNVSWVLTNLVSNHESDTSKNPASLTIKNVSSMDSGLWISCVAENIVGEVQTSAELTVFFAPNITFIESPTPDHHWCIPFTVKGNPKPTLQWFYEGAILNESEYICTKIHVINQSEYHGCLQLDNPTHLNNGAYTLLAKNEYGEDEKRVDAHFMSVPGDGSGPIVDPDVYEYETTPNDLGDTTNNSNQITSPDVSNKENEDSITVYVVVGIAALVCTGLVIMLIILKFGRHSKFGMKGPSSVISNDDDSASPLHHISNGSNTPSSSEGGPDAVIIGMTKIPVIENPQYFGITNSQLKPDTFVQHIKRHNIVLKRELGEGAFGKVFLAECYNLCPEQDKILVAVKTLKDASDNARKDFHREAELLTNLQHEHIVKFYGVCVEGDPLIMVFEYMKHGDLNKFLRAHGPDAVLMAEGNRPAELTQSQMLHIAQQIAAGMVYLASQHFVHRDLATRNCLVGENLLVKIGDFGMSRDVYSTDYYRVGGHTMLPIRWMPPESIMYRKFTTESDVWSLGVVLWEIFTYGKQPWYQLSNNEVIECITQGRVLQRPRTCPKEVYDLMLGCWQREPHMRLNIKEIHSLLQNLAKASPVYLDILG

B1: wild-type rat nerve growth factor (ligand)
chain: SSTHPVFHMGEFSVCDSVSVWVGDKTTATDIKGKEVTVLGEVNINNSVFKQYFFETKCRAPNPVESGCRGIDSKHWSNYCTTTHTFVKALTTDDKQAAWRFIRIDTACVCVLSRKAARRG
The molecule B1 displayed a Biological Activity % of wild type (neurite outgrowth from explants of embryonic sympathetic ganglia) (% of wild type) in experiment [1] of 100. The Biological Activity % of wild type (maximal cell survival of dissociated embryonic nodose neurons) (% of wild type) in experiment [2] is below 5. The results for the “Receptor Binding % of wild type” value with TrkA [3] and with TrkB [5] were 100 % of wild type and < 0.2 % of wild type, respectively. Further, the binding result in the experiment with TrkB [4] is “no binding (tested: <0,2 % of wild type)”.

B2: NGF mutant I31A (ligand)
chain: SSTHPVFHMGEFSVCDSVSVWVGDKTTATDAKGKEVTVLGEVNINNSVFKQYFFETKCRAPNPVESGCRGIDSKHWSNYCTTTHTFVKALTTDDKQAAWRFIRIDTACVCVLSRKAARRG
The molecule B2 registered a Biological Activity % of wild type (neurite outgrowth from explants of embryonic sympathetic ganglia) (% of wild type) in experiment [1] of 25. The “Receptor Binding % of wild type” value with TrkA [3] is 20 % of wild type. The “fold reduction in receptor binding against wt NGF” value with TrkA [6] came to 4 fold.

B3: wild-type brain-derived neurotrophic factor (ligand)
chain: HSDPARRGELSVCDSISEWVTAADKKTAVDMSGGTVTVLEKVPVSKGQLKQYFYETKCNPMGYTKEGCRGIDKRHWSNQCRTTQSYVRALTMDSKKRIGWRFIRIDTSCVCTLTIKRGR
In turn, B3 yielded a Biological Activity % of wild type (neurite outgrowth from explants of embryonic sympathetic ganglia) (% of wild type) in experiment [1] below 0.2. In addition, the binding result with TrkA [7] is “no binding (tested: <0,2 % of wild type)”. Also, the EC50 of TrkB tyrosine phosphorylation in experiment [8] stood at 5 ng/mL. For the same molecule, the Biological Activity % of wild type (maximal cell survival of dissociated embryonic nodose neurons) (% of wild type) in experiment [2] is 100. In addition, the results for the “Receptor Binding % of wild type” value in the experiment with TrkA [3] and with TrkB [5] were < 0.2 % of wild type and 100 % of wild type, respectively.

Values taken from patent US5488099, “Multifunctional chimeric neurotrophic factors” (dated 1996).
